The values below come from publication PMC6814797, “C-terminal–modified LY2510924: a versatile scaffold for targeting C-X-C chemokine receptor type 4” (Scientific Reports, 2019).

Where a SMILES comes first, the peptide text is derived from it. Bridges are numbered along the chain shown (N, C = ends). [ ]: non-standard residue; d: D form. 2Nal = N[C@@H](Cc1ccc2ccccc2c1)C(=O)O; Lys(iPr) = CC(C)NCCCC[C@H](N)C(=O)O

Series [1] has as its target T1, CXCR4 (Homo sapiens, UniProt P61073).
T1 construct: were determined with CCRF-CEM cells expressing endogenous CXCR4; endogenous in cells; host or cells: CCRF-CEM (human acute lymphoblastic leukemia) whole cells
Nature of the series: Competitive binding assay: displacement of 125I-SDF-1α from CXCR4-expressing CCRF-CEM cells. To be noted: CCRF-CEM 0.5 × 10^6 cells, 125I-SDF-1α 1 kBq, 0.25 nM SDF-1α, one hour, room temperature per method (b54 says 37 °C); mean ± SD, n = 3. As for the experimental part: CCRF-CEM cells and ^125I-SDF-1α were used for the competitive binding assay. The competitive binding assay was performed in a 96-well MultiScreen HTS FB plate (Merck) treated with 0.1% polyethyleneimine. RPMI-1640 containing 1% bovine serum albumin (BSA) and 0.05% Tween20 was used for the assay buffer. Briefly, 200-μL reaction mixtures containing CCRF-CEM (0.5 × 10^6 cells), ^125I-SDF-1α (1 kBq), SDF-1α (0.05 pmol; R&D Systems, Minneapolis, MN), and varying concentrations of CXCR4 antagonists were incubated at room temperature for one hour. After the incubation, the cells were washed three times with the assay buffer, and radioactivity counts of cells were determined with a gamma counter. The IC50 values were calculated by using GraphPad Prism version 5.04 (GraphPad Software, San Diego, CA).
Since the purpose of this study was to assess in vivo accumulation to CXCR4-expressing cells, the apparent binding affinities were determined at 37 °C. […] The half-maximal inhibitory concentration (IC50) values of FRM001, its Ga-, Lu-, and Y-complexes, and other CXCR4 antagonists were determined with CCRF-CEM cells expressing endogenous CXCR4[34]. The displacement of ^125I-SDF-1α bound to the CXCR4 with the compounds was also evaluated in the presence of 0.25 nM of SDF-1α.
(Loss of bound radioactivity is the signal in a displacement assay; it reports binding, not function.)

A short description of series [2]: physchem. To be noted: pH 7.4. The format is physicochemical. The procedure: A solution of ^67Ga-FRM001 (168 kBq, 56.8 pmol of FRM001) in 0.5 mL of 1-octanol was added to a 0.5 mL solution of phosphate-buffered saline (PBS) (pH 7.4). The mixture was vortexed and rotated at room temperature for 5 min. After centrifugation at 13,000 × g for 5 min, the radioactivity concentrations in samples of both the aqueous and organic phases were determined by using a gamma counter, and the logPow values were calculated.

The nature of series [3]: in vivo. To be noted: female, SCID (C.B-17/Icr-scid/scid), mouse, iv, total radioactivity; for tissue uptake at 4 h: biodistribution. The procedure: All animal experiments were conducted in accordance with the Guidelines for Proper Conduct of Animal Experiments issued by the Science Council of Japan (June 1, 2006), and all experimental protocols were approved by the Institutional Animal Care and Use Committee of FUJIFILM RI Pharma Co., Ltd. (Permit No. Rin-170802 and Rin-180101). The acute lymphoblastic leukemia CCRF-CEM model was prepared using a published procedure. Briefly, 5 × 10^6 cells mixed with Matrigel (1:1; Corning, Corning, NY) were implanted subcutaneously into the rear flank of female 10-week-old SCID mice (C.B-17/Icr-scid/scid; CLEA Japan, Tokyo). After an average of three weeks, the animals were used in biodistribution and PET imaging studies. Tumor volumes ranged from 709–2,257 mm^3, while the tumor mass-to-body weight ratio was 3.1–9.4%.
Mice were sacrificed at four hours after the injection. Organs of interest were removed, weighed, and the radioactivity counts were determined using a gamma counter. The biodistribution of each sample was expressed as a percentage of the injected dose per gram of wet tissue weight (%ID/g).

T1 sequence (P61073 whole entry): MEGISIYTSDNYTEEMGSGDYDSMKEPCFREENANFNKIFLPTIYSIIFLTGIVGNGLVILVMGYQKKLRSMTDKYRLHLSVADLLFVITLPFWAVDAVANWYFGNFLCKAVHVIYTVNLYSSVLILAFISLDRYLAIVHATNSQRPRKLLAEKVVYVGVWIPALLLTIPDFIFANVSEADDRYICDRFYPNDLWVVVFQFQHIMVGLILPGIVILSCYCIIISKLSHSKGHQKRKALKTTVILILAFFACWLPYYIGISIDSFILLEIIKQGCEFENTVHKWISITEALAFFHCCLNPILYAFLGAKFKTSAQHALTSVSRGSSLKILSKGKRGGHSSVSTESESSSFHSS

Usually IC50 stands for the concentration that inhibits the measured activity by half. On to `c1ccc(CNCc2ccc(CN3CCCNCCNCCCNCC3)cc2)nc1` [AMD3465, reference compound], for which the IC50 in series [1] worked out at 12.8 ± 1.52 nM.

Regarding `CC(C)NCCCC[C@@H]1NC(=O)[C@H](Cc2ccc(O)cc2)NC(=O)[C@H](Cc2ccccc2)NC(=O)CC[C@H](C(=O)N[C@@H](CCCCNC(C)C)C(=O)N[C@@H](CSC2CC(=O)N(CCNC(=O)CN3CCN(CC(=O)O)CCN(CC(=O)O)CCN(CC(=O)O)CC3)C2=O)C(N)=O)NC(=O)CNC(=O)[C@H](Cc2ccc3ccccc3c2)NC(=O)[C@@H](CCCNC(=N)N)NC1=O` (stereo partly drawn) [FRM001, cyclo[Phe-Tyr-Lys(iPr)-D-Arg-2-Nal-Gly-D-Glu]-Lys(iPr)-Cys(maleimido-mono-amide-DOTA)-NH2], the concentration for half-maximal inhibition (IC50) in series [1] turned out to be 1.78 ± 0.15 nM.

Molecule `CC(C)NCCCC[C@@H]1NC(=O)[C@H](Cc2ccc(O)cc2)NC(=O)[C@H](Cc2ccccc2)NC(=O)CC[C@H](C(=O)N[C@@H](CCCCNC(C)C)C(=O)N[C@@H](CSC2CC(=O)N(CCNC(=O)CN3CCN(CC(=O)O)CCN(CC(=O)O)CCN(CC(=O)O)CC3)C2=O)C(N)=O)NC(=O)CNC(=O)[C@H](Cc2ccc3ccccc3c2)NC(=O)[C@@H](CCCNC(=N)N)NC1=O` (stereo partly shown) [Ga-FRM001] displayed an IC50 in series [1] of 2.26 ± 0.51 nM.

In series [1], `CC(C)NCCCC[C@H](NC(=O)[C@H]1CCC(=O)N[C@@H](Cc2ccccc2)C(=O)N[C@@H](Cc2ccc(O)cc2)C(=O)N[C@@H](CCCCNC(C)C)C(=O)N[C@H](CCCNC(=N)N)C(=O)N[C@@H](Cc2ccc3ccccc3c2)C(=O)NCC(=O)N1)C(N)=O` [LY2510924, cyclo[Phe-Tyr-Lys(iPr)-D-Arg-2-Nal-Gly-D-Glu]-Lys(iPr)-NH2] (FY[Lys(iPr)][dR][2Nal]G[dE][Lys(iPr)]-NH2; lactam N-7) had an IC50 of 1.37 ± 0.1 nM.

On to `CC(C)NCCCC[C@@H]1NC(=O)[C@H](Cc2ccc(O)cc2)NC(=O)[C@H](Cc2ccccc2)NC(=O)CC[C@H](C(=O)N[C@@H](CCCCNC(C)C)C(=O)N[C@@H](CSC2CC(=O)N(CCNC(=O)CN3CCN(CC(=O)O)CCN(CC(=O)O)CCN(CC(=O)O)CC3)C2=O)C(N)=O)NC(=O)CNC(=O)[C@H](Cc2ccc3ccccc3c2)NC(=O)[C@@H](CCCNC(=N)N)NC1=O` (stereo partly shown) [Lu-FRM001], for which the IC50 in series [1] came out at 2.15 ± 0.14 nM.

The molecule `CC(C)NCCCC[C@@H]1NC(=O)[C@H](Cc2ccc(O)cc2)NC(=O)[C@H](Cc2ccccc2)NC(=O)CC[C@H](C(=O)N[C@@H](CCCCNC(C)C)C(=O)N[C@@H](CSC2CC(=O)N(CCNC(=O)CN3CCN(CC(=O)O)CCN(CC(=O)O)CCN(CC(=O)O)CC3)C2=O)C(N)=O)NC(=O)CNC(=O)[C@H](Cc2ccc3ccccc3c2)NC(=O)[C@@H](CCCNC(=N)N)NC1=O` (stereo partly shown) [Y-FRM001] yielded an IC50 in series [1] of 0.89 ± 0.04 nM.

One may read the logD as the decadic logarithm of the distribution of all forms, ionised or not, between an organic phase and buffer at a given pH. Low values mean a more hydrophilic compound, high ones a more lipophilic compound. As a reminder, the tissue uptake is the percentage of the injected dose found per gram of tissue. `CC(C)NCCCC[C@@H]1NC(=O)[C@H](Cc2ccc(O)cc2)NC(=O)[C@H](Cc2ccccc2)NC(=O)CC[C@H](C(=O)N[C@@H](CCCCNC(C)C)C(=O)N[C@@H](CSC2CC(=O)N(CCNC(=O)CN3CCN(CC(=O)O)CCN(CC(=O)O)CCN(CC(=O)O)CC3)C2=O)C(N)=O)NC(=O)CNC(=O)[C@H](Cc2ccc3ccccc3c2)NC(=O)[C@@H](CCCNC(=N)N)NC1=O` (stereo partly shown) [^67Ga-FRM001, metal not drawn]: in series [2], the logD was -3.23 ± 0.05. The tissue to tissue ratio at 4 h in series [3] (0.2 nmol FRM001/mouse) was 59. The tissue uptake at 4 h was found to be 1.02 ± 0.192 %ID/g in series [3] (0.2 nmol FRM001/mouse, adrenals); 0.205 ± 0.033 %ID/g in series [3] (0.2 nmol FRM001/mouse, blood); 0.682 ± 0.099 %ID/g in series [3] (0.2 nmol FRM001/mouse, bone); 0.015 ± 0.003 %ID/g in series [3] (0.2 nmol FRM001/mouse, brain); 0.291 ± 0.137 %ID/g in series [3] (0.2 nmol FRM001/mouse, fat); 0.385 ± 0.063 %ID/g in series [3] (0.2 nmol FRM001/mouse, heart). Besides, the tissue uptake at 4 h amounted to 4.85 ± 0.501 %ID/g in series [3] (0.2 nmol FRM001/mouse, kidneys); 0.852 ± 0.318 %ID/g in series [3] (0.2 nmol FRM001/mouse, large intestine); 16.1 ± 2.66 %ID/g in series [3] (0.2 nmol FRM001/mouse, liver); 2.01 ± 0.301 %ID/g in series [3] (0.2 nmol FRM001/mouse, lungs); 0.107 ± 0.018 %ID/g in series [3] (0.2 nmol FRM001/mouse, muscle); 0.808 ± 0.247 %ID/g in series [3] (0.2 nmol FRM001/mouse, ovary). For the same molecule, the tissue uptake at 4 h in series [3] (0.2 nmol FRM001/mouse, skin) amounted to 0.404 ± 0.076 %ID/g; in series [3] (0.2 nmol FRM001/mouse, small intestine), 0.355 ± 0.036 %ID/g; in series [3] (0.2 nmol FRM001/mouse, stomach), 0.381 ± 0.417 %ID/g; in series [3] (0.2 nmol FRM001/mouse, thymus), 1.57 ± 0.587 %ID/g; in series [3] (0.2 nmol FRM001/mouse, tumor), 12 ± 1.99 %ID/g; in series [3] (0.2 nmol FRM001/mouse, uterus), 0.944 ± 0.338 %ID/g. In addition, the tissue uptake at 4 h in series [3] (0.2 nmol/mouse, pancreas) came out at 0.198 ± 0.016 %ID/g; in series [3] (0.2 nmol/mouse, spleen), 3.77 ± 0.195 %ID/g.
